What was measured:
[1] = molecular target: hHBV treated with sialidase S (hepatitis B virus from CHB patients); assay: BLI, Siglec-3.Fc immobilized on the sensor, sialidase S-treated hHBV in solution
[2] = molecular target: HBV purified from blood of chronic hepatitis B patients (hHBV virions carrying hHBsAg) (hepatitis B virus from CHB patients); assay: BLI, Siglec-3.Fc immobilized on the sensor, untreated hHBV in solution
[3] = molecular target: HBV purified from blood of chronic hepatitis B patients (hHBV virions carrying hHBsAg) (hepatitis B virus from CHB patients); assay: calculated from three BLI results by the multivalency equation of paragraph 89
[4] = molecular target: HBV purified from blood of chronic hepatitis B patients (hHBV virions carrying hHBsAg) (hepatitis B virus from CHB patients); assay: BLI, Siglec-3.Fc immobilized on the sensor, hHBV in solution

What does the source list for “recombinant human Siglec-3 ECD.Fc fusion protein (from UniProt P20138 18-259)”?
Kd [1]: 384 pM; koff [1]: 0.000273 s⁻¹; kon [1]: 711000 M⁻¹ s⁻¹; Kd [2]: 591 pM; koff [2]: 0.000697 s⁻¹; kon [2]: 1.18e+06 M⁻¹ s⁻¹; valence (N) [3]: 2; Kd [4]: 115 pM; koff [4]: 0.000358 s⁻¹; kon [4]: 3.11e+06 M⁻¹ s⁻¹
